In patent publication US20220387586A1 (Hoffmann-La Roche, published 2022):

Experiments:
[1] = target: T1, LAG3 on cells (recombinant CHO cells expressing Lag3) (human, UniProt P18627 29-525); test: cell-based or functional assay
T1 sequence: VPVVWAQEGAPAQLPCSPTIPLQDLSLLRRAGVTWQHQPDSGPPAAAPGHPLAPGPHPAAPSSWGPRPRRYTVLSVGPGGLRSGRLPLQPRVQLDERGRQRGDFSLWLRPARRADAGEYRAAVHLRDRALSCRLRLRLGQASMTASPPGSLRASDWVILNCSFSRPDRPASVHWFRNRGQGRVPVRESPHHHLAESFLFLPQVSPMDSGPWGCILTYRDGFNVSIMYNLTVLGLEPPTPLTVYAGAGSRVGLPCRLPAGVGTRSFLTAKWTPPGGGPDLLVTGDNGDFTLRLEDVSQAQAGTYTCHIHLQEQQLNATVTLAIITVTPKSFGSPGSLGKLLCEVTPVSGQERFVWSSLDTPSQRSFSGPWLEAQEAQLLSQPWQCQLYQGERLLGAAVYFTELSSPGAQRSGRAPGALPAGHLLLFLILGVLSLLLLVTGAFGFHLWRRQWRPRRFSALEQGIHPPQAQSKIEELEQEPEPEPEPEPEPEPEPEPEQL

[2] = target: T1, LAG3 on cells (recombinant CHO cells …); test: cell ELISA on recombinant CHO cells expressing Lag3
Method: After washing (1×90 μl in PBST) cells were fixed by addition of 30 μl/well glutaraldehyde to a final concentration of 0.05% (Sigma Cat.No: G5882), 10 min at room temperature. After washing (3×90 μl/well with PBST-buffer) 25 μl/well goat anti-Human Ig κ chain antibody-HRP conjugate (Milipore, AP502P) was added in a 1:1000 dilution and incubated at RT for 1 h. After washing (3×90 μl/well with PBST-buffer) 25 μl/well TMB substrate (Roche, 11835033001) was added and incubated for 6-10 min. Measurement took place on a Tecan Safire 2 instrument at 370/492 nm.

cynomolgus LAG3 on cells [3] = target: T2, cynomolgus LAG3 on cells (cynomolgus); test: flow cytometry on HEK293F cells transfected with cyno-LAG-3, antibody 10 µg/ml
T2 construct: whole, on cells; also called cyno-LAG-3; cynoLAG3
Method: 1.5×10⁵ cells/well were seeded into 96-well plates. […] HEK cells were incubated with indicated antibodies for 45 min on ice, washed twice with 200 μl ice-cold PBS buffer containing 2% FBS, before secondary antibody (APC-labelled goat anti-human IgG-kappa, Invitrogen, cat.no. #MH10515) was added (1:50 diluted in FACS-Puffer/well) and further incubated for 30 min on ice. Cells were again washed twice with 200 μl ice-cold PBS/2% FBS buffer before samples were finally resuspended in 150 μl FACS buffer and binding was measured on FACS CANTO-II HTS Module.

cynomolgus LAG3 on cells [4] = target: T2, cynomolgus LAG3 on cells; test: flow cytometry on activated cynomolgus PBMC, 10 µg/ml (only 2nd Ab (hu): 7.62)
Method: Thus, cynomolgus peripheral blood mononuclear cells (PBMC) were prepared from fresh cynomolgus blood and were then activated by CD3/CD28 pre-treatment (1 μg/ml) for 2-3 days. […] After staining, cells were washed two times with PBS/2% FCS and analyzed on a FACS Fortessa (BD).

[5] = target: T3, human Fc tagged human Lag3 extra cellular domain (human, UniProt P18627 29-450, biotinylated in the epitope binning, the SA CAP SPR and the FACS competition assay); test: FACS, inhibition of biotinylated Lag3:Fc binding to MHC-II on A375 cells (competitor MHC-II); antibody 10 µg/ml
T3 construct: In-house fusion; also called huLag3-Fc; biotinylated, huFc-tagged huLag3; not shown: human Fc tag
T3 sequence: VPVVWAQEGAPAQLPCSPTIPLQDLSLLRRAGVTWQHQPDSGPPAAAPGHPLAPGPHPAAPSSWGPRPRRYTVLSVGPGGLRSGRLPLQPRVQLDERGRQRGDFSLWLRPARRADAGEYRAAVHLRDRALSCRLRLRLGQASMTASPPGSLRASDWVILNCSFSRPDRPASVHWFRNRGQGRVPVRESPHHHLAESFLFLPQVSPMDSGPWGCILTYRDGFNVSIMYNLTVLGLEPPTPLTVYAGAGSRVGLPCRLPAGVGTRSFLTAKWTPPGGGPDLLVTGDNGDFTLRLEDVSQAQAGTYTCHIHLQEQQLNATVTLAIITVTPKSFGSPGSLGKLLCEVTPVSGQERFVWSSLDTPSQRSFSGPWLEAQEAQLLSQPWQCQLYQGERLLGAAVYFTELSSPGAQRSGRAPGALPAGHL
Method: This analysis was studied in a FACS competition experiment: A375 cells (ATCC, #CRL-1619) were cultured for 2-3 passages in EM Eagle's medium supplemented with EBSS (PAN, cat.no. #P04-00509), 10% FBS, 2 mM L-Glutamin, 1×NEAA and 1× Sodium Pyruvate. All antibodies, were diluted in FACS buffer to a final concentration of 20 μg/ml in 25 μl (in 96well U-bottom plates). […] A375 cells were washed with PBS and adjusted to 3×10⁶ cells/ml in PBS. 100 μl were seeded per well in a 96well V-bottom plate. Plates were centrifuged and supernatant was removed. […] After this, cells were washed with 200 μl FACS buffer. […] After staining, cells were again washed and then transferred in 150 μl FACS buffer (PBS/2% FBS) to a U-bottom plate and analyzed on a FACS Canto-II using an HTS module.
All antibodies were used at 10 μg/ml final concentration.

biotinylated-Lag3 [6] = target: T4, biotinylated-Lag3 (UniProt P18627 23-450, limits assumed, biotinylated); test: ELISA, inhibition of biotinylated-Lag3 binding to MHC-II on A375 cells (competitor MHC-II); first of two numbers; first of two series in the cell
T4 construct: Probably a human LAG3 ECD construct; also called Lag3 (MHCII/ELISA)
T4 sequence (looked up): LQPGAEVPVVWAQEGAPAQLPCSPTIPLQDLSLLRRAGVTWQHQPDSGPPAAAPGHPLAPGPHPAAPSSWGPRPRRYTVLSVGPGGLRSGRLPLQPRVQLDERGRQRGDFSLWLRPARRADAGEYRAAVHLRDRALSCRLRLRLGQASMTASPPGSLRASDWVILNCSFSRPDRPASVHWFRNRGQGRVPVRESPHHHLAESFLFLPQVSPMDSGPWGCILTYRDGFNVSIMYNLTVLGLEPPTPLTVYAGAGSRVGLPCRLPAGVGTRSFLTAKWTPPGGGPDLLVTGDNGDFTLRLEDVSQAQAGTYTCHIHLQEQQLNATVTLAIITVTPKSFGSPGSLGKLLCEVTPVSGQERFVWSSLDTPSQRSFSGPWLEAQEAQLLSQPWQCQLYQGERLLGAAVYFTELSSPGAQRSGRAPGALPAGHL

biotinylated-Lag3 [7] = target: T4, biotinylated-Lag3; test: ELISA, inhibition of biotinylated-Lag3 binding to MHC-II on A375 cells (competitor MHC-II); second of two numbers; second of two series in the cell (the series of '/0.4' and '/1.0')

B1: Reference LAG3 antibody MDX25F7 (antibody, V domains shown)
VH: QVQLQQWGAGLLKPSETLSLTCAVYGGSFSDYYWNWIRQPPGKGLEWIGEINHNGNTNSNPSLKSRVTLSLDTSKNQFSLKLRSVTAADTAVYYCAFGYSDYEYNWFDPWGQGTLVTVSS
VL: EIVLTQSPATLSLSPGERATLSCRASQSISSYLAWYQQKPGQAPRLLIYDASNRATGIPARFSGSGSGTDFTLTISSLEPEDFAVYYCQQRSNWPLTFGQGTNLEIK
notes: also called MDX-25F7 (25F7); Medarex 25F7
B1 was tested, and the “EC50 [nM] in Jurkat LAG3 + SED + Raji (NFAT luciferase), 2nd assay” value [1] was 8.6 nM, the “CHO-cell ELISA inflexion point” value [2] was 75 ng/mL and the “% pos.” value (cynomolgus LAG3 on cells [3]) was 41.2%. The GeoMean (cynomolgus LAG3 on cells [3]) was 3060, the “% positive cyno cells (PBLs) after CD3/CD28 activation” value (cynomolgus LAG3 on cells [4]) was 22.1% and the “% Inhibition” value [5] was 70%. It also gave an IC50 (biotinylated-Lag3 [6]) of 0.8 nM and an IC50 (biotinylated-Lag3 [7]) of 0.6 nM.
